Positions count from the first letter of the chain named. Like-named read-outs stand apart in the source and are kept apart here.
B1: sRBD7 Fab (Fab, V domains shown)
VH: EVQLVESGGGLVQPGGSLRLSCAASGFNVYSSYIHWVRQAPGKGLEWVAYISPYYGSTYYADSVKGRFTISADTSKNTAYLQMNSLRAEDTAVYYCARYWSYGGMDYWGQGTLVTVSS
VL: DIQMTQSPSSLSASVGDRVTITCRASQSVSSAVAWYQQKPGKAPKLLIYSASSLYSGVPSRFSGSRSGTDFTLTISSLQPEDFATYYCQQYYYGALITFGQGTKVEIKR
B2: sRBD1.15 Fab (Fab, V domains shown)
VH: EVQLVESGGGLVQPGGSLRLSCAASGFNFHNSYIHWVRQAPGKGLEWVASISSYSGYTYYADSVKGRFTISADTSKNTAYLQMNSLRAEDTAVYYCARSYQGQEALDYWGQGTLVTVSS
VL: B1 VL with Y92L, G94F, A95S, I97V

Key:
[1] = molecular target: T1, Receptor Binding Domain (RBD) of SARS-CoV-2 S protein (SARS-CoV-2, UniProt P0DTC2 319-541)
[2] = molecular target: T1, Receptor Binding Domain (RBD) of …; remark: listed apart in the source

| Binder | Kd [1] [nM] | koff [1] [s⁻¹] | kon [1] [M⁻¹ s⁻¹] | Kd [2] [nM] | koff [2] [s⁻¹] | kon [2] [M⁻¹ s⁻¹] |
| --- | --- | --- | --- | --- | --- | --- |
| B1 | 2.55 | 0.00029 | 150000 |  |  |  |
| B2 |  |  |  | 0.1 | 0.00011 | 1e+06 |

Reference: patent US20240059760A1 (UNIVERSITY OF CHICAGO, published 2024)
